Data: patent US20220195051A1 (UNIVERSIT T Z RICH, published 2022)

Biological target: T1, human recombinant biotinylated FcRn (Immunitrack) (human, UniProt P55899 24-297, biotinylated (site not told))
T1 construct: Immobilised on a ProteOn NLC chip for SPR at pH 6.0; also called human FcRn; hFcRn
Experiment: SPR, human FcRn immobilised, IL-12Fc variants in solution, pH 6.0
Experimental: SPR was performed using the ProteOn XPR36 System (Bio-Rad Laboratories, Inc.), coating human recombinant biotinylated FcRn (Immunitrack) on a ProteOn NLC sensor chip to approximately 80 response units (RU). […] The dissociation time was 600 s. Analysis was performed using the ProteOn Manager software (Bio-Rad Laboratories, Inc.) using data normalization to the injection time, interspot background removal and build-in artefact removal function. Kd were calculated using the equilibrium analysis model.

T1 sequence (P55899 24-297): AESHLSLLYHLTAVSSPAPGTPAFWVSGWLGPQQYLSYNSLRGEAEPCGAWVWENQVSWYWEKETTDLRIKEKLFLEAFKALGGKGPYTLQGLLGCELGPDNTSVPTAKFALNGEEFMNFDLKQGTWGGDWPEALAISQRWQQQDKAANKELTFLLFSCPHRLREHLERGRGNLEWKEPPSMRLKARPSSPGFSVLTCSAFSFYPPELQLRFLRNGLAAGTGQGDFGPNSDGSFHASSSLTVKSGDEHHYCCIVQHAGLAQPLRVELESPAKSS

fold reduction of affinity against IL-12Fc WT: ~8 fold
B1: human IL-12Fc NHQ (Fc fusion)
chain: IWELKKDVYVVELDWYPDAPGEMVVLTCDTPEEDGITWTLDQSSEVLGSGKTLTIQVKEFGDAGQYTCHKGGEVLSHSLLLLHKKEDGIWSTDILKDQKEPKNKTFLRCEAKNYSGRFTCWWLTTISTDLTFSVKSSRGSSDPQGVTCGAATLSAERVRGDNKEYEYSVECQEDSACPAAEESLPIEVMVDAVHKLKYENYTSSFFIRDIIKPDPPKNLQLKPLKNSRQVEVSWEYPDTWSTPHSYFSLTFCVQVQGKSKREKKDRVFTDKTSATVICRKNASISVRAQDRYYSSSWSEWASVPCSRNLPVATPDPGMFPCLHHSQNLLRAVSNMLQKARQTLEFYPCTSEEIDHEDITKDKTSTVEACLPLELTKNESCLNSRETSFITNGSCLASRKTSFMMALCLSSIYEDLKMYQVEFKTMNAKLLMDPKRQIFLDQNMLAVIDELMQALNFNSETVPQKSSLEEPDFYKTKIKLCILLHAFRIRAVTIDRVMSYLNASKVDKRVESKYGPPCPPCPAPEFLGGPSVFLFPPKPKDTLMNSRTPEVTCVVVDVSQEDPEVQFNWYVDGVEVHNAKTKPREEQFNSTYRVVSVLTVLHQDWLNGKEYKCKVSNKGLPSSIEKTISKAKGQPREPQVYTLPPSPEEMTKNQVSLTCLVKGFYPSDIAVEWESNGQPENNYKTTPPVLDSDGSFFLYSRLTVDKSRWQEGNVFSCSVMHEALHNQYTQKSLSLSLGK
notes: mature; As m1 with I253N and H435Q (EU) in the Fc; also called NHQ variant; not shown: Gly-Ser-linker between p40 and p35
